First the molecules themselves.
B1: CLIP2 degron peptide (peptide)
peptide: EIGELKAVMEGIKMEHQLELGN
notes: stretch of CLIP2, a reported ASB7 substrate; source: synthetic peptide (Shanghai Apeptide Co., Ltd.)
B2: CEP152 degron peptide (peptide)
peptide: ELEKAKQECQDLKGKLEKCCRH
notes: stretch of CEP152, a reported ASB7 substrate; source: synthetic peptide (Shanghai Apeptide Co., Ltd.)
B3: LZTS1 degron peptide, 17 residues (ELESLMKEQDLLETKLR) (peptide)
peptide: ELESLMKEQDLLETKLR
notes: LZTS1 degron, positions E1 to R17 of the degron numbering; also called 17-residue degron; source: synthetic peptide (Shanghai Apeptide Co., Ltd.)
B4: CCDC17 degron peptide (peptide)
peptide: LEQEIRELQAEAGRTRGALEVLG
notes: stretch of CCDC17, a reported ASB7 substrate; also called CCDC17 peptide; source: synthetic peptide (Shanghai Apeptide Co., Ltd.)
B5: LZTS1 degron peptide Y19R (peptide)
peptide: RQELESLMKEQDLLETKLRSRER
notes: numbers count on: the degron, E1 = third letter of the 23-residue peptide; source: synthetic peptide (Shanghai Apeptide Co., Ltd.)
B6: GIGYF1 degron peptide (peptide)
peptide: EDDEGLKHLQQEAEKLVASLQDS
notes: stretch of GIGYF1, a reported ASB7 substrate; source: synthetic peptide (Shanghai Apeptide Co., Ltd.)
B7: LZTS1 degron peptide, 21 residues (RQELESLMKEQDLLETKLRSY) (peptide)
peptide: RQELESLMKEQDLLETKLRSY
notes: LZTS1 degron shortened by two residues at the C-terminus; source: synthetic peptide (Shanghai Apeptide Co., Ltd.)
B8: LZTS1 degron peptide, 21 residues (ELESLMKEQDLLETKLRSYER) (peptide)
peptide: ELESLMKEQDLLETKLRSYER
notes: LZTS1 degron shortened by two residues at the N-terminus; source: synthetic peptide (Shanghai Apeptide Co., Ltd.)
B9: DDA3 degron peptide (peptide)
peptide: PEKLEEILDEANRLAAQLEQCAL
notes: stretch of DDA3; the text names the region as residues 70-93 (24 residues) and the peptide as 23 residues; also called DDA3 peptide; source: synthetic peptide (Shanghai Apeptide Co., Ltd.)
B10: DDA3-degron 23-residue peptide (peptide)
peptide: SPEKLEEILDEANRLAAQLEQCAL
notes: DDA3; the region covering residues 70-93 was named as the potential degron and a 23-residue peptide was synthesized; residues 70-93 are 24 residues, the peptide is said to have 23; also called DDA3 residues 70–93; source: synthetic peptide (Shanghai Apeptide Co., Ltd.)
B11: GST-fused CLIP2 degron peptide (peptide)
chain: SGPGAQQKEIGELKAVMEGIKMEHQLELGNLQAKHDLET
notes: degron stretch of CLIP2; pGEX vector; also called GST-tagged CLIP2; not shown: GST, N-terminal, kept
B12: GST-fused CCDC17 degron peptide (peptide)
chain: GMSRLFGLEQEIRELQAEAGRTRGALEVLGARIQELQAE
notes: degron stretch of CCDC17; pGEX vector; also called GST-tagged CCDC17; not shown: GST, N-terminal, kept
B13: GST-fused GIGYF1 degron peptide (peptide)
chain: SSAGPPGDLEDDEGLKHLQQEAEKLVASLQDSSLEEEQFT
notes: degron stretch of GIGYF1; pGEX vector; also called GST-tagged GIGYF1; not shown: GST, N-terminal, kept
B14: GST-fused LZTS1-degron (peptide)
chain: VLQLQQEKRQLRQELESLMKEQDLLETKLRSYEREKTSFG
notes: degron stretch of LZTS1; pGEX vector; also called GST-tagged LZTS1; not shown: GST, N-terminal, kept
B15: GST-fused CEP152 degron peptide (peptide)
chain: GHCFQELEKAKQECQDLKGKLEKCCRHLQHLERKHK
notes: degron stretch of CEP152; pGEX vector; also called GST-tagged CEP152; not shown: GST, N-terminal, kept

The Kd is the constant that tells how readily two partners part at equilibrium. For orientation: stoichiometry N means the number of molecules, sites or subunits per partner or assembly.

The target in the first test is T1, ASB7-Elongin B-Elongin C ternary complex (wild-type ASB7, residues 11-318) (human, UniProt Q9H672 11-318; Q15370 1-104; Q15369 17-112).
T1 construct: human ASB7, residues 11-318; human Elongin B, residues 1-104; also called ASB7-Elongin B/C; WT; source: E. coli BL21 (DE3), co-expressed, purified (Ni-NTA, Superdex 200); not shown: SUMO, N-terminal, cleaved; copies: + +
T1 sequence (Q9H672 11-318, chain 1 of 3): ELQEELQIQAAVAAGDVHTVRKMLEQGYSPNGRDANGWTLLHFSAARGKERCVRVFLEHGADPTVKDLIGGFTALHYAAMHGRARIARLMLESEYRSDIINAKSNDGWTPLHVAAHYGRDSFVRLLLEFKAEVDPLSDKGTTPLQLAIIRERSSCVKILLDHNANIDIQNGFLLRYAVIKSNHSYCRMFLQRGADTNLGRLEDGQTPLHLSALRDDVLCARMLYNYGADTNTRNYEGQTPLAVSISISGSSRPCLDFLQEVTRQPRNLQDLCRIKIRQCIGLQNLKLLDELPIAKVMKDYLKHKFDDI
T1 sequence (Q15370 1-104, chain 2 of 3): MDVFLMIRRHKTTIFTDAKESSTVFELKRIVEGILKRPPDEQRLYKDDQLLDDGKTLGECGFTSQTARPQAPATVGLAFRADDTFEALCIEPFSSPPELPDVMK
T1 sequence (Q15369 17-112, chain 3 of 3): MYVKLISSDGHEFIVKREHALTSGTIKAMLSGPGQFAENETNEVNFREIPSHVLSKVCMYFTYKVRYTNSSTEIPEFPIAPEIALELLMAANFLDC
The experiment in a line: ITC; peptide in the syringe titrated into ASB7-Elongin B/C in the cell; MicroCal PEAQ-ITC, 16 °C, 20 mM Tris-HCl pH 7.5, 150 mM NaCl; 39–156 μM protein, 0.8–4 mM peptide; repeated three times, mean ± SD. The note with it: both partners purified.
With B1, binding was characterised by a dissociation constant (Kd) of 700 nM and the “stoichiometry N” value came out at 0.71.

Regarding B2, the “stoichiometry N” value was 1.27.

For B3, the affinity, expressed as Kd, was 5100 nM and the “stoichiometry N” value amounted to 1.12.

As to B4, the Kd is 1100 nM and the “stoichiometry N” value came to 0.76.

In the case of B5, the Kd was 700 nM and the “stoichiometry N” value was determined as 0.71.

Consider B6, for which the affinity, expressed as Kd, was 1000 nM and the “stoichiometry N” value amounted to 0.78.

Regarding B7, the Kd was 900 nM and the “stoichiometry N” value stood at 0.91.

Take B8: the equilibrium dissociation constant (Kd) came to 700 nM and the “stoichiometry N” value came out at 0.68.

With B9, the “stoichiometry N” value worked out at 1.32.

The target in another test is T2, ASB7-Elongin B-Elongin C ternary complex (human, UniProt Q9H672 11-318; Q15370 1-104; Q15369 17-112).
T2 construct: ASB7, human, residues 11-318; Elongin B, human, residues 1-104; ASB7 cloned into pET28-MKH8SUMO (Addgene plasmid #79526 is the vector); Elongin B and C in pCDFDuet-1; tag cleaved with TEV protease; also called ASB7-Elongin B/C; wild-type ASB7; source: E. coli BL21 (DE3), co-expressed, purified (Ni-NTA, Superdex 200); not shown: SUMO, N-terminal, cleaved; copies: + +
The experiment in a line: ITC; peptide (0.8–4 mM) titrated into the ASB7 complex (39–156 µM); 16 °C; 20 mM Tris-HCl pH 7.5, 150 mM NaCl; MicroCal PEAQ-ITC. The settings on record: both partners purified. (ITC needs no label: the signal is the heat of the interaction.)
Target sequence in this assay (Q9H672 11-318, chain 1 of 3): as the sequence (Q9H672 11-318, chain 1 of 3) above
Target sequence in this assay (Q15370 1-104, chain 2 of 3): as the sequence (Q15370 1-104, chain 2 of 3) above
Target sequence in this assay (Q15369 17-112, chain 3 of 3): as the sequence (Q15369 17-112, chain 3 of 3) above
Regarding B10, the dissociation constant Kd is 1300 nM.

For another test, the target named is T2, ASB7-Elongin B-Elongin C ternary complex. Put plainly: pull-down; GST or GST-fusion degron peptides (~50 µg) on glutathione magnetic beads, ~30 µg purified ASB7-Elongin B/C added; 20 mM Tris-HCl pH 7.5, 400 mM NaCl, 2 mM β-mercaptoethanol; 4 °C; glutathione elution, Coomassie-stained SDS-PAGE. The note with it: both partners purified.
Consider B11, for which the binding result is given as “binds”.

As to B12, the binding result is given as “binds”.

In the case of B13, the binding result is “binds”.

Consider B14, for which the binding result is given as “binds”.

As to B15, the binding result is “binds”.
